The values below come from US20140274782A1, “AFFINITY REAGENTS AND METHODS FOR DETECTION, PURIFICATION, AND PROTEOMIC ANALYSIS OF METHYLATED PROTEINS” (The Board of Trustees of the Leland Stanford Junior …, priority 2013, published 2014).

This assay concerns the target T1, G9a and GLP (Homo sapiens, UniProt Q96KQ7+Q9H9B1).
T1 construct: endogenous in cells; host or cells: HEK 293T
T1 sequence (Q96KQ7 2-1210 limits assumed): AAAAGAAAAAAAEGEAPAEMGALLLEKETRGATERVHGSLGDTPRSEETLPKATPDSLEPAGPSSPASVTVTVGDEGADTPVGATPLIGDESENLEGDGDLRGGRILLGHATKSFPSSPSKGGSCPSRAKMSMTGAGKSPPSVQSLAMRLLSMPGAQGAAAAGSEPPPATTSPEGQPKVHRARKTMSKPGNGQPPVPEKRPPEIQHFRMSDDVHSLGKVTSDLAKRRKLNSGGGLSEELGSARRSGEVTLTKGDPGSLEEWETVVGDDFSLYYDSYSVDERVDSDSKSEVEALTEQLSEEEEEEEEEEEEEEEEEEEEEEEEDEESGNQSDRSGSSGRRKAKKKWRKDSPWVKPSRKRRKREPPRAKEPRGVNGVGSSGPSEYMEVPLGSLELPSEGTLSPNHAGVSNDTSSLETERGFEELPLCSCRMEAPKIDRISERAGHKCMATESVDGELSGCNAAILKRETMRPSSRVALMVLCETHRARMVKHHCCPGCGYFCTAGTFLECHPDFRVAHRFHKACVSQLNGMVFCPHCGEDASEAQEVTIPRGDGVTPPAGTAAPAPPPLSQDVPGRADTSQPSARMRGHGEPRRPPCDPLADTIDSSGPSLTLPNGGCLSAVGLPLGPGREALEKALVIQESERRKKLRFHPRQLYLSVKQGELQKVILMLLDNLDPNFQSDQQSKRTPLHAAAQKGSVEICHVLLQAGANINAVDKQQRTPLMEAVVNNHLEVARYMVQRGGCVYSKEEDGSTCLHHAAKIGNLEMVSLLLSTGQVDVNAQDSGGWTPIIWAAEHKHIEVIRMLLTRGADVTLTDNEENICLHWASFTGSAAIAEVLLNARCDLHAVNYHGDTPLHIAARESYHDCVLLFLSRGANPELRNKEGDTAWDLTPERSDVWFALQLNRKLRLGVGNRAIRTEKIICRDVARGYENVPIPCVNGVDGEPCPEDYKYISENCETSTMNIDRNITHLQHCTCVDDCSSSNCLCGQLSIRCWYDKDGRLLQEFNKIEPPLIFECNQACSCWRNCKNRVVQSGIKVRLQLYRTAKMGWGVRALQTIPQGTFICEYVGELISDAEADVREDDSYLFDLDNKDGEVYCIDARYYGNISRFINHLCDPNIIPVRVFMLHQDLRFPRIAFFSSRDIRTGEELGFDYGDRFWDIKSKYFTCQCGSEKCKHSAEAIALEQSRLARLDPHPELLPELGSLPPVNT
T1 sequence (Q9H9B1 2-1298 limits assumed): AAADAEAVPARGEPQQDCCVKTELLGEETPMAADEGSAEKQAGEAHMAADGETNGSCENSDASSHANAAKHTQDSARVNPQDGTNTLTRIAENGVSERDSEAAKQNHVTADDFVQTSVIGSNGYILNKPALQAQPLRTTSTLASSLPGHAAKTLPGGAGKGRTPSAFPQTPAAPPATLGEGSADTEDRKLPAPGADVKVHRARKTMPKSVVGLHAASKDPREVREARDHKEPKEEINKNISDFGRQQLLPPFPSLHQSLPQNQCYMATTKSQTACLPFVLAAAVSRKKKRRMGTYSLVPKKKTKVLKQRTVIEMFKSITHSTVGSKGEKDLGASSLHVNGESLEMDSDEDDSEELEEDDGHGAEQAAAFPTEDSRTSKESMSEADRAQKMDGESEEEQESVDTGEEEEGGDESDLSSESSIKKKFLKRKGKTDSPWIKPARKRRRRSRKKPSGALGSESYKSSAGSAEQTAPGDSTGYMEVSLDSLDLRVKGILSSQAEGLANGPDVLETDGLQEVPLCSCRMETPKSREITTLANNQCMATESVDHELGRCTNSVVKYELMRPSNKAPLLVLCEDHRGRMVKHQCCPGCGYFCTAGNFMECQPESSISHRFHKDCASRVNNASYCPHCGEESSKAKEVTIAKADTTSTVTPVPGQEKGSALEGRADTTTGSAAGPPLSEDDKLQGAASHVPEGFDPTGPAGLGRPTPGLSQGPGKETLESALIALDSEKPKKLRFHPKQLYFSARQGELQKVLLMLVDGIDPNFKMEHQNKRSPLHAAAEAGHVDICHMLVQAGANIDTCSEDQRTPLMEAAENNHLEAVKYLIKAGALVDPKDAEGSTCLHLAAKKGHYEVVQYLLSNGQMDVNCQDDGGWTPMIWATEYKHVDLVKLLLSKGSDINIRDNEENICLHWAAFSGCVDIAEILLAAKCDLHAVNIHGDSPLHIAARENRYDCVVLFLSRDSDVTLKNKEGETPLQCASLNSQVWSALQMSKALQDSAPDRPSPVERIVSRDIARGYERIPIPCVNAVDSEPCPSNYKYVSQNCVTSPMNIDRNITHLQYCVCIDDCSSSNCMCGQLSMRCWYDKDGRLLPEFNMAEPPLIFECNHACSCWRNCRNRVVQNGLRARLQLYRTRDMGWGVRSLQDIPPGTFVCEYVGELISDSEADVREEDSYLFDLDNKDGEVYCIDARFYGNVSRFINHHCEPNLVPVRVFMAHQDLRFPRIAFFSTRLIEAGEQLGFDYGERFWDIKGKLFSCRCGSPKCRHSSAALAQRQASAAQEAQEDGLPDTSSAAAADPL
In words: Triple SILAC pull-down after UNC0638 treatment of 293T cells, DMSO/UNC0638 ratio of protein captured by 3×MBT.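 As to all read-outs here: mass spectrometry (Q-Exactive) SILAC quantitation, DMSO/UNC0638 ratio computed after subtracting 3×MBTD355N mutant pull-down background, only proteins with at least twofold 3×MBT over mutant signal considered.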 The assay is classed as cell-based. The following applies: for Relative to UNC0638 UNC Heavy / Relative to UNC0638 UNC Light: SILAC ratio DMSO/UNC0638 of protein pulled down with 3xMBT; for Relative to UNC0638 UNC Heavy: UNC0638 in heavy SILAC media; for Relative to UNC0638 UNC Light: UNC0638 in light SILAC media; for Relative to UNC0638 Average: average of UNC Light and UNC Heavy experiments; for Protein Ratios DMSO/UNC0638: SILAC ratio of protein captured by 3xMBT, 293T cells treated 24 hours with UNC0638 at 2.5 μM or DMSO; for Candidate G9a/GLP target: reduced association with 3xMBT after UNC0638 treatment.

Regarding “MCM7: protein with methylated lysine identified in 3xMBT pull-down”, the “Relative to UNC0638 UNC Heavy” value came to 0.12 log base 2, the “Relative to UNC0638 UNC Light” value was 0.10 log base 2 and the “Relative to UNC0638 Average” value is reported as 0.11 log base 2.
As for “SSRP1: protein with methylated lysine identified in 3xMBT pull-down”, the “Relative to UNC0638 UNC Heavy” value came to 0.00 log base 2, the “Relative to UNC0638 UNC Light” value was found to be 0.26 log base 2 and the “Relative to UNC0638 Average” value is given as 0.13 log base 2.
In the case of “RBM25: protein with methylated lysine identified in 3xMBT pull-down”, the “Relative to UNC0638 UNC Heavy” value was found to be 0.25 log base 2, the “Relative to UNC0638 UNC Light” value is reported as 0.29 log base 2 and the “Relative to UNC0638 Average” value came out at 0.27 log base 2.
On the same counts, the results for “MSH6: protein with methylated lysine identified in 3xMBT pull-down” are 0.18 log base 2, 0.06 log base 2 and 0.12 log base 2.
As for DNA ligase 1, the “Relative to UNC0638 UNC Heavy” value stood at 0.83 log base 2, the “Relative to UNC0638 UNC Light” value came to 1.06 log base 2, the “Protein Ratios DMSO/UNC0638” value is reported as 1.9 and the “Relative to UNC0638 Average” value is 0.95 log base 2. Moreover, the “Candidate G9a/GLP target” value is listed as “✓”.
For Protein Wiz the same measures were 0.83 log base 2, 0.29 log base 2, 1.5, 0.56 log base 2 and “✓”.
